{
  "source": "paper PMC12462478",
  "about": "(Nature Communications, 2025)",
  "binders": {"B1": {"name": "RSPO2(FU), FU domain of RSPO2 (residues 37–143) (domain or fragment)", "chain": "NPICKGCLSCSKDNGCSRCQQKLFFFLRREGMRQYGECLHSCPSGYYGHRAPDMNRCARCRIENCDSCFSKDFCTKCKVGFYLHRGRCFDECPDGFAPLEETMECVE"}},
  "biological_target": "human LGR4 (residues 25–833), called full-length LGR4 (human, UniProt Q9BXB1 25-833)",
  "test": "cryo-EM structure",
  "data": [
    {"binder": "B1", "values": [
      {"measurement": "stoichiometry N", "result": 1}
    ]}
  ]
}
